Source: patent US8895281B2, “Method for preparing a site-specific physiologically active polypeptide conjugate” (Hanmi Science Co., Ltd, priority 2009, dated 2014)

How the values were obtained:
[1] = target: GLP-1 receptor (CHO/GLP-1R cell line); assay: cell-based or functional assay
GLP-1 receptors = target: T1, GLP-1 receptors (Homo sapiens, UniProt P43220); assay: In-vitro activity: cAMP increase in CHO/GLP-1R cells; assay type: cell-based; details: CHO/GLP-1R cell line; cAMP measured at varying concentrations, EC50 values compared; control Byetta = 100
T1 construct: expressed in transfected cells; host or cells: CHO (CHO/GLP-1R)
Description: To measure the efficacy of long acting preparation of exendin-4 by pegylation and pegylation site, a method for measuring the in-vitro activity was used. The measurement of in-vitro activity of GLP-1 is a method for measuring whether cAMP's in the cell was increased after treatment of GLP-1 to CHO cell lines to which GLP-1 receptors was cloned. Specifically, CHO/GLP-1R, a cell line in which […], was treated with GLP-1, exendin-4 and test materials described in Table 1 at varying concentrations.

T1 sequence (P43220 24-463): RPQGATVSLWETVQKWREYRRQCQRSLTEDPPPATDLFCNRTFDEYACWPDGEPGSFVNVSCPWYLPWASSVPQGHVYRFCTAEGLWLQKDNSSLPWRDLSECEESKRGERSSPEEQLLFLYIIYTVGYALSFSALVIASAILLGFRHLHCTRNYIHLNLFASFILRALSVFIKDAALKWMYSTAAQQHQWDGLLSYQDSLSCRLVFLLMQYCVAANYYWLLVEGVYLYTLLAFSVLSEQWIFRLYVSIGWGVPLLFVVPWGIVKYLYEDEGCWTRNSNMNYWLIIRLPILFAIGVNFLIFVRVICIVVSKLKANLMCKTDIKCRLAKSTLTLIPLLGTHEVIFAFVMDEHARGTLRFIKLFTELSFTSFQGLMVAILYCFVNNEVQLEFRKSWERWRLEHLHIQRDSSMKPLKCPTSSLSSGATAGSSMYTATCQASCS
Chain of Byetta (Eli Lilly) (P26349 48-86): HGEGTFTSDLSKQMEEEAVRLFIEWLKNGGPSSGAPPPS

In-vitro activity (%) (GLP-1 receptors) | Substance | In-vitro activity (%) (cAMP in CHO/GLP-1R cells, EC50 values compared) [1]
 | Byetta (Eli Lilly) (from UniProt P26349 48-86) (peptide) | 100%
77% | imidazo-acetyl-exendin-4 [CA-exendin-4] | 
